How the values were obtained:
[1] = molecular target: HKU1-A spike protein ectodomain (strain Caen1), trimeric, furin cleavage site mutated, with GCN4 trimerization motif (human coronavirus HKU1 (serotype A, strain Caen1)); assay: cryo-EM structure; apo: 4.3 µM HKU1 spike trimer without ligand, applied to grids at 4 °C; single-particle analysis, C3 symmetry imposed
[2] = molecular target: HKU1-A spike protein ectodomain (strain Caen1), trimeric, furin cleavage site mutated, with GCN4 trimerization motif (human coronavirus HKU1 (serotype A, strain Caen1)); assay: cryo-EM structure; 3 µM wild-type or W89A spike trimer with 300 µM 9-O-acetylated disialoside, incubated at room temperature for about 10 min before vitrification; single-particle analysis
[3] = molecular target: W89A mutant HKU1-A spike protein ectodomain (human coronavirus HKU1 (serotype A)); assay: as above

| Substance | stoichiometry N [1] | stoichiometry N [2] | stoichiometry N [3] |
| --- | --- | --- | --- |
| HKU1-A spike protein ectodomain (strain Caen1), trimeric, furin cleavage site mutated, with GCN4 trimerization motif (domain or fragment) | 3 | 3 | – |
| W89A mutant HKU1-A spike protein ectodomain (domain or fragment) | – | – | 3 |

From paper PMC10700143
